Measurements from the RNAGym collection of RNA variant scans (doi:10.1021/acssynbio.7b00057).

B1: Pistol ribozyme (parent)
chain: GGGUCGUUGUUCCAUAAUCGCGUGGAUAUGGCACGCAAGUUUCUACCGGGCACCGUAAAUGUCCGACUGGAGCCGUUCGGGCGGCUAUAAACAGACCUCAGGCCCGAAGCGUGGCGGCACCUGCCGCCGGUGGUAAAAAAGAUCGGAAGAGCACACGUCU

Variants of: B1
Experiment: aptazyme ON/OFF ratio, guanine; higher = stronger switching; co-transcriptional cleavage with and without guanine

Variant | aptazyme ON/OFF ratio
U8C U10A C12A C13G | 1.1
U8C G9U U10C C12A C13U | 1.19
U8C G9U U10C C12A C13A | 1.1
U8C G9U U10C C12A C13G | 1.11
U8C G9U U10C U11G C13U | 1.28
U8C G9U U10C U11G C13G | 1.2
U8C G9U U10C U11G C13A | 1.23
U8C U10A C12G C13U | 1.26
U8C U10A C12G C13G | 1.14
U8C U10A C12G C13A | 1.17
U8C G9U U10A U11C C12G C13G | 1.28
U8C G9U U10A U11C C12G C13A | 1.25
U8C G9U U10A U11C C12G C13U | 1.31
U8C U10C U11G C12G C13U | 1.08
U8C U10C U11G C12G C13G | 1.15
U8C U10C U11G C12G C13A | 1.25
U8C G9U U10G U11C C12G | 1.19
U8C G9U U10G U11C C12U | 1.04
U8C G9U U10G U11C C12A | 1.62
U8C U10A U11A C12U C13G | 1.3
U8C U10A U11A C12U C13U | 1.26

Variant | aptazyme ON/OFF ratio
U8C U10A U11A C12U C13A | 1.18
U8C G9U U10A U11C C12U C13G | 1.09
U8C G9U U10A U11C C12U C13U | 1.23
U8C G9U U10A U11C C12U C13A | 1.19
U8C U10A U11C C12U C13U | 1.06
U8C U10A U11C C12U C13A | 1.06
U8C U10A U11C C12U C13G | 1.07
U8C G9U U10G C12G C13G | 1.21
U8C G9U U10G C12G C13A | 1.3
U8C G9U U10G C12G C13U | 1.3
U8C G9U U10G U11C C12U C13G | 1.11
U8C G9U U10G U11C C12U C13U | 1.19
U8C G9U U10G U11C C12U C13A | 1.19
U8C U10C U11C C12U | 1.44
U8C U10C U11C C12G | 1.18
U8C U10C U11C C12A | 1.25
U8C U10A U11G C13A | 1.3
U8C U10A U11G C13U | 1.23
U8C U10A U11G C13G | 1.29
U8C U10C U11A | 1.63
U8C U10C U11G | 1.42

Variant | aptazyme ON/OFF ratio
U8C U10C U11C | 1.85
U8C U10C C12A C13U | 1.42
U8C U10C C12A C13A | 1.33
U8C U10C C12A C13G | 1.17
U8C G9U U10C U11G C12U C13A | 1.13
U8C G9U U10C U11G C12U C13G | 1.12
U8C G9U U10C U11G C12U C13U | 1.25
U8C U10A U11A C12G C13A | 1.15
U8C U10A U11A C12G C13U | 1.28
U8C U10A U11A C12G C13G | 1.35
U8C U10A U11C C12A | 1.08
U8C U10A U11C C12G | 1.17
U8C U10A U11C C12U | 1.02
U8C U10A U11A C13A | 1.17
U8C U10A U11A C13G | 1.22
U8C U10A U11A C13U | 1.21
U8C G9U U10G U11G C13G | 1.13
U8C G9U U10G U11G C13U | 1.27
U8C G9U U10G U11G C13A | 1.14
U8C G9U U11G C12G | 1.2
U8C G9U U11G C12U | 1.59

Variant | aptazyme ON/OFF ratio
U8C G9U U11G C12A | 1.08
U8C G9U U10G U11G C12U | 1.12
U8C G9U U10G U11G C12G | 1.18
U8C G9U U10G U11G C12A | 1.22
U8C G9U U10A U11G C13G | 1.11
U8C G9U U10A U11G C13U | 1.32
U8C G9U U10A U11G C13A | 1.2
U8C G9U U10G U11C C12A C13G | 1.19
U8C G9U U10G U11C C12A C13U | 1.52
U8C G9U U10G U11C C12A C13A | 1.22
U8C G9U U11A C12G C13U | 1.22
U8C G9U U11A C12G C13A | 1.13
U8C G9U U11A C12G C13G | 1.12
U8C G9U U10G U11G C12U C13U | 1.15
U8C G9U U10G U11G C12U C13A | 1.11
U8C G9U U10G U11G C12U C13G | 1.08
U8C U10C U11G C12U | 1.39
U8C U10C U11G C12A | 1.15
U8C U10C U11G C12G | 1.25
U8C G9U U11C C12U | 1.09
U8C G9U U11C C12G | 1.24
